Measurements from US20190112362A1 (published 2019).

Target: Human Tau monomer (recombinant 2N4R isoform, amino acids 2-441) (human, UniProt P10636 2-441)
Test: SPR

Sequence of Human Tau monomer (recombinant 2N4R isoform, amino acids 2-441) (P10636 other isoform, or with tags, fused parts or gaps): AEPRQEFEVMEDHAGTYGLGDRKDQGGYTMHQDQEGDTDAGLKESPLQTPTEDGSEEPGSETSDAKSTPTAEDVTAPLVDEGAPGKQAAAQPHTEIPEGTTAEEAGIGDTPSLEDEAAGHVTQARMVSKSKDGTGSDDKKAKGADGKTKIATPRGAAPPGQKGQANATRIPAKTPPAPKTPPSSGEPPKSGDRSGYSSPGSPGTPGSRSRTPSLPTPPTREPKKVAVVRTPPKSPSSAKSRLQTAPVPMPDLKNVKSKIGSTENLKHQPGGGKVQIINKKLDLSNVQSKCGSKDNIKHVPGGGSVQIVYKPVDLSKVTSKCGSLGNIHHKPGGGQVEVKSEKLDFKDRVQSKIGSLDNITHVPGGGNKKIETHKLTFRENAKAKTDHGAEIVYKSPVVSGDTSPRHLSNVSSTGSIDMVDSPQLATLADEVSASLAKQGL

Kd: 40.9 nM
Binder: EDLHSNADTYFL [hu37D3.v29.8]
